Consider five molecules from paper PMC7354485 (2020).

For assay [1], the target named is pUL50 (Human cytomegalovirus) (UniProt P16791). In words: competition with pUL50-pUL53 interaction. The following applies: cited from earlier work.
The target of assay [2] is pUL53 hook peptide (Human cytomegalovirus) (UniProt P16794). The following applies: cited from earlier work.
The target in assay [3] is T1, pUL50 (Human cytomegalovirus, UniProt P16791).
T1 chain: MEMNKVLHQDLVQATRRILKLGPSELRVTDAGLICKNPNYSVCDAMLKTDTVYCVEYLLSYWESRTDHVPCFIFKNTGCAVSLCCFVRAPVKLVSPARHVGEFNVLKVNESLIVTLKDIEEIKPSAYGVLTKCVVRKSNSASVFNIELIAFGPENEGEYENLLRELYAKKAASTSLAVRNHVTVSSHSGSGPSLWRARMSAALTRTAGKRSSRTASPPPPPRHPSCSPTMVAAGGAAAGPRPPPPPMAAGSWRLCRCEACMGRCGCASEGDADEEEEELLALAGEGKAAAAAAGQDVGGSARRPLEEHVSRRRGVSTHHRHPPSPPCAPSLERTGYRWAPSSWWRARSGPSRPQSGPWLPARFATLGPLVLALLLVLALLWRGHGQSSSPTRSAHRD
In words: fluorescence polarization.

Another assay has as its target T2, BFRF1 (Epstein-Barr virus, UniProt P03185).
T2 chain: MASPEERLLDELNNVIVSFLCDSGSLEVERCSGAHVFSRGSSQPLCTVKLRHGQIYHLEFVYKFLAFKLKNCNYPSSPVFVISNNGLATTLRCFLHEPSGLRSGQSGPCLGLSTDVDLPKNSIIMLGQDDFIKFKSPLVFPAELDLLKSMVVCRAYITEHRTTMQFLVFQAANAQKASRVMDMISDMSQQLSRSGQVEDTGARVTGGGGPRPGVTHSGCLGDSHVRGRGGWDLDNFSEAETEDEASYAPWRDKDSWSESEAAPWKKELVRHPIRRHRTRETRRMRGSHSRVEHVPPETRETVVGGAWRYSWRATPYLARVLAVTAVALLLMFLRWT
In words: fluorescence polarization.

The target in assay [4] is T1, pUL50. In words: competition with pUL50-pUL53 interaction.

pUL53 hook peptide (Human cytomegalovirus), sequence (P16794 whole entry): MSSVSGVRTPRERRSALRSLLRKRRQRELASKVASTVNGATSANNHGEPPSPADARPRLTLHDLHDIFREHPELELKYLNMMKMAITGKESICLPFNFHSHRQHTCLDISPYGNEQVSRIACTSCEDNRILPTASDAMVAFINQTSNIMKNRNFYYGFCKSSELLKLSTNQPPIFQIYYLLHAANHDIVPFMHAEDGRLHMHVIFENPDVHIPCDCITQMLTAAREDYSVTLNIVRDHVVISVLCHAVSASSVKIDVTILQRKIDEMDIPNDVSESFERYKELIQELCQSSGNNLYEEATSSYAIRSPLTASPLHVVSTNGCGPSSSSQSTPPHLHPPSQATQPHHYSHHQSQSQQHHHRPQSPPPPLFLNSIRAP

As a reminder, the IC50 is the concentration that gives 50% inhibition. On to pUL53 hook peptide, for which the IC50 in assay [1] is 110 nM.

What is called Kd is a measure of binding affinity in units of concentration. Turning to pUL50 (from UniProt P16791), the Kd in assay [2] was 120 nM.

B1: pUL53 hook peptide 59-87 (peptide)
chain: LTLHDLHDIFREHPELELKYLNMMKMAIT
As to B1, binding in the assay with pUL50 [3] was characterised by a dissociation constant (Kd) of 120 nM.

B2: BFLF2 hook peptide 78-110 (peptide)
chain: DRSHFSLRDFFRGISANFELGKDFLREMNTPIH
As to B2, in the assay with BFRF1, the Kd stood at 117 nM.

B3: pUL53 hook peptide (peptide)
chain: LTLHDLHDIFREHPELELKYLNMMKMAIT
In the assay with pUL50 [4], B3 yielded an IC50 of 50 nM.
